Results on two molecules are retold here after US20120027756A1 (IRM, published 2012).

Assay [1] addresses T1, Human TSLPR (human, UniProt Q9HC73 23-231, limits assumed).
T1 construct: also called hTSLPR; human thymic stromal lymphopoietin receptor
T1 sequence (looked up): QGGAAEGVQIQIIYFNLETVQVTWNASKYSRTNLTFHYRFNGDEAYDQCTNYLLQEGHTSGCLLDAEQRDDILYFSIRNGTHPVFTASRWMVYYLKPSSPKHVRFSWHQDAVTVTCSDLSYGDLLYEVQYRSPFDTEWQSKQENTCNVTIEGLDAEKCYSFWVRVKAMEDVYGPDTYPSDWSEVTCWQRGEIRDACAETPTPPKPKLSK
The assay is described as follows: Biacore surface plasmon resonance.

The target in assay [2] is T1, Human TSLPR. The assay is described as follows: ForteBio, solution binding kinetics.
Assay [3] deals with T2, Human TSLPR on the cell surface (Ba/F3/hTSLPR/hIL7Rα cells, Ba/F3/hTSLPR/hIL7Rα/Stat5-Luc cells, human … (human, UniProt Q9HC73 23-371)).
T2 sequence (looked up): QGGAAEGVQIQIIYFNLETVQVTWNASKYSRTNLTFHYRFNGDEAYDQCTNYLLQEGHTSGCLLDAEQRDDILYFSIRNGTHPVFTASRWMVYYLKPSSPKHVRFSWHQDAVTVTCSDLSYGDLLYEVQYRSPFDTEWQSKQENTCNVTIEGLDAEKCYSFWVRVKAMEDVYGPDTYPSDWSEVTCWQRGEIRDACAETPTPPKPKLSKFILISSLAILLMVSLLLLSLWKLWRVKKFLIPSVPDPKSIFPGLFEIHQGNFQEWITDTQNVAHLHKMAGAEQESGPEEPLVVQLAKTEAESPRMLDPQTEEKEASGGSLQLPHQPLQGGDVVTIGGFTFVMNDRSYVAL
The assay is described as follows: cell-based or functional assay.

Assay [4] has as its target T3, Human TSLPR fragment 67-336 (human, UniProt Q9HC73).
T3 construct: extracellular domain fragment; also called 67 (23) to 336 (112)
T3 sequence (receptor fragment, looked up): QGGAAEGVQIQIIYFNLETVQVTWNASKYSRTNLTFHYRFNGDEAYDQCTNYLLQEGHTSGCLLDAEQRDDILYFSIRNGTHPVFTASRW
The assay is described as follows: ELISA of antibody 1D6.C9 on human TSLPR fragments (OD650); hFc bars as control for the fragment.

Assay [5] concerns the target T4, Human TSLPR fragment 67-174 (human, UniProt Q9HC73).
T4 construct: extracellular domain fragment; also called 67 (23) to 174 (58)
T4 receptor fragment (looked up): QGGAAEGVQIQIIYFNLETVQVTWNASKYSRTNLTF
The description is as above.

B1: NV115-3B (Fab) (Fab, V domains shown)
VH: QVQLVQSGAEVKKPGASVKVSCKASGYTFTTYGISWLRQAPGQGLEWMGWVNTNTGNPRYAQGFTGRFVFSLDTSVSTAYLQISSLKAEDTAVYYCAREGFITTVVGAAGRFVYWGQGTLVTVSS
VL: DIQMTQSPSSLSASVGDRVTITCRASQDIHTRLAWYQQKPGQPPKLLIYWASTRASGVPDRFSGTGSGTDFTLTISSLQAEDVAVYYCQQYSTYPTFGQGTKLEIK
notes: the constant domains of the Fab are not
Regarding B1, the equilibrium dissociation constant (Kd) with Human TSLPR [1] came to 0.101 nM. The molecule further showed a Kd with Human TSLPR [2] of 0.051 nM. For the same molecule, in assay [3], the “IC50 [pM] Human TSLPR Prolif.” value was found to be 210 pM, the “IC50 [pM] Human TSLPR Prolif. (15% serum)” value was determined as 200 pM, the “IC50 [pM] Human TSLPR RGA” value came out at 270 pM and the “IC50 [pM] Human TSLPR RGA (15% serum)” value was 950 pM.

B2: mouse anti-hTSLPR monoclonal antibody clone 1D6.C9 (antibody, V domains shown)
VH: QIQLGQSGPELKKPGETVKISCKASGYTFTTYGMSWVKQAPGKGLQWMGWINTYSGVPRYADDFKGRFAFSLETSASTAYLQIYNLKNEDTATYFCTREGFITTVVGAAGRFVYWGQGTLVTVSA
VL: DIVMTQSHKFMSTSVGDRVSITCKASQDVGTAVAWYQQKPGQSPKLLIYWASTRHTGVPDRFTGSGSGTDFTLTLNNVQSEDLADYFCQQYSTYPTFGSGTKLELKR
notes: also called mAb 1D6.C9; mouse anti-hTSLPR antibody
In the case of B2, the binding result in assay [4] and in assay [5] was “no binding” each time.
